Results reported in US6762284 (ONYX PHARMACEUTICALS, dated 2004).
Where two headings read alike, the source gives them in different places.

How the values were obtained:
Experiment in all cases: yeast two-hybrid
[1] = molecular target: T1, p85 C-terminal SH2 domain (AA 620-727) (human, UniProt P04386 1-147; P27986 620-724)
[2] = molecular target: T2, p85 SH3 domain (AA 6-117) (human, UniProt P04386 1-147; P27986 6-117)
[3] = molecular target: T3, p85 Bcr homology domain (AA 118-340) (human, UniProt P04386 1-147; P27986 118-340)
[4] = molecular target: T4, p85 full length (AA 6-727) (human, UniProt P04386 1-147; P27986 6-724)
T4 construct: also called GAL4-p85

[5] = molecular target: p85 SH2 domains and inter SH2 domain (AA 263-727) (human, UniProt P04386 1-147; P27986 263-724)
[6] = molecular target: T5, p85 N-terminal SH2 and inter SH2 domain (AA 263-620) (human, UniProt P04386 1-147; P27986 263-620)
T5 construct: Two-hybrid bait fusion

[7] = molecular target: T1, p85 C-terminal SH2 domain (AA 620-727); remark: listed apart in the source
[8] = molecular target: T2, p85 SH3 domain (AA 6-117); remark: listed apart in the source
[9] = molecular target: T3, p85 Bcr homology domain (AA 118-340); remark: listed apart in the source

Measured: binding result

B1: PIKAP AA 277-360 (other, not shown: large carriers)
chain: EDSGDAEAHAFKSPSKENKKKDKDMLEDKFKSNNLEREQEQLDRIVKESGGKLTRRLVNSQCEFERRKPDGTTTLGLLHPVDPI
not listed: [7] | [8] | [9]
no binding: all other assays above

B2: PIKAP AA 517-589 (other, not shown: large carriers)
chain: DRLIALKAVTNFGVPVEVFDSEEAEIFQKKLDETTRLLRELQEAQNERLSTRPPGNMICLLGPSSEKCILLNK
notes: The text speaks of the last 74 amino acids, while 517-589 counts 73 residues; also called last 74 amino acids of the c-terminal end of PIKAP
no binding: [1] | [2] | [3]

B3: PIKAP AA 361-516 (other, not shown: large carriers)
chain: VGEPGYCLVRLGMTTGRLQSGVNTLQGFKEDKRNKVTPVLYLNYGPYSSYAPHYDSTFANISKDDSDLIYSTYGEDSDLPSDFSIHEFLATCQDYPYVMADSLLDVLTKGGHSRTLQEMEMSLPEDEGHTRTLDTGKEMEQITEVEPPGRLDSSTQ
not listed: [7] | [8] | [9]
no binding: all other assays above

B4: PIKAP AA 277-589 (other, not shown: large carriers)
chain: EDSGDAEAHAFKSPSKENKKKDKDMLEDKFKSNNLEREQEQLDRIVKESGGKLTRRLVNSQCEFERRKPDGTTTLGLLHPVDPIVGEPGYCLVRLGMTTGRLQSGVNTLQGFKEDKRNKVTPVLYLNYGPYSSYAPHYDSTFANISKDDSDLIYSTYGEDSDLPSDFSIHEFLATCQDYPYVMADSLLDVLTKGGHSRTLQEMEMSLPEDEGHTRTLDTGKEMEQITEVEPPGRLDSSTQDRLIALKAVTNFGVPVEVFDSEEAEIFQKKLDETTRLLRELQEAQNERLSTRPPGNMICLLGPSSEKCILLNK
notes: Two-hybrid prey fusion expressed in yeast YGH1; also called original isolate from two hybrid screening; PI3K Associated Protein AA 277-589
no binding: [7] | [8] | [9]
